Data reported in article PMC8511952.

How the values were obtained:
[1] = tested on: MBP-ERSRC WT (Homo sapiens); assay: fluorescence anisotropy; settings: unmodified in vitro transcript; FA: 5 nM labeled tRNA, 25 mM Tris-HCl pH 8, 50 mM NaCl, 1 mM MgCl2, room temperature, 30 min
[2] = tested on: MBP-ERS2.5W WT (Homo sapiens); assay: fluorescence anisotropy; settings: unmodified in vitro transcript; FA: 5 nM labeled tRNA, 25 mM Tris-HCl pH 8, 50 mM NaCl, 1 mM MgCl2, room temperature, 30 min

## tRNAGlu(TTC)
[1]
  Kd: 331 nM
[2]
  Kd: 83.7 nM
